From the supplement of paper PMC9170038

Tested on: MS2 coat protein
Assay: apparent KD of MS2 coat protein; designed switch direction (-1 OFF switch, 1 ON switch): -1; higher = weaker reporter binding
Method in brief: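 Designed RNA switches were transcribed on Illumina chips by stalled E. coli RNA polymerase and titrated with SNAP-549-labelled MS2 coat protein from 0.7 or 1.5 nM, doubling to 3 µM. Step length ran from 0.8–1.5 h at the lowest concentration to 10–20 min at the highest. The apparent KD is the median over clusters for each design, from curve-fitted normalised cluster fluorescence.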

[1] = Eterna round: R95, input ligand: FMN 200 uM
[2] = Eterna round: R95, input ligand: microRNA oligo, concentration not stated
[3] = Eterna round: R95, input ligand: none
[4] = input ligand: microRNA oligo, concentration not stated

Sequence	apparent KD of MS2 coat protein [1]	apparent KD of MS2 coat protein [2]	apparent KD of MS2 coat protein [3]	apparent KD of MS2 coat protein (input ligand: FMN 200 uM)	apparent KD of MS2 coat protein [4]	apparent KD of MS2 coat protein (input ligand: none)
UAUAAAACAUAGGAUAUCGAAAUUAUCAUUUAACGAGAAGGAUGAACAUGAGGAUCACCCAUGUGGUAUCAUGG [Mat - Exclusion 6 - JL Mod - D10] (puzzle: Exclusion 6)	370 nM	425 nM	238 nM			
UAUAAAAUAUAGGAUAUCGAAUAUAUUAUUUAACGAGAAGGAUGAACAUGAGGAUCACCCAUGUGGUAUCAUGG [Mat - Exclusion 6 - JL Mod - D37] (puzzle: Exclusion 6)	199 nM	255 nM	415 nM			
UAUAUAUAGUAAGGAUAUGUAAUUAUAUUAUAAACAGAAGGUACUGACAUGAGGAUCACCCAUGUUUUAGUGUGGGCAUGUAGA [JMF's solution 38] (Eterna round: R96, puzzle: Exclusion NG 1)				85.9 nM	60.1 nM	97.7 nM
UAUAUAUAGUAAGGAUAUGUAAUUAUUCUAUAAACAGAAGGUACUGACAUGAGGAUCACCCAUGUUUUAGUGUGGGCAUGUAGA [JMF's solution 40] (Eterna round: R96, puzzle: Exclusion NG 1)					33.8 nM	
UAUAUAUAGUAAGGAUAUGUAUAUACUUUAUAAACAGAAGGUACUGACAUGAGGAUCACCCAUGUUUUAGUGUGGGCAUGUAGA [JMF's solution 57] (Eterna round: R96, puzzle: Exclusion NG 1)					57.1 nM	
UAUAUAUAGUAAGGAUAUGUAUAUAUUUUAUAAACAGAAGGUACUGACAUGAGGAUCACCCAUGUUUUAGUGUGGGCAUGUAGA [JMF's solution 7] (Eterna round: R96, puzzle: Exclusion NG 1)					57.5 nM	
UAUAUAUAGUAAGGAUAUGUAUUAAUUUUUUAAACAGAAGGUACUGACAUGAGGAUCACCCAUGUUUUAGUGUGGGCAUGUAGA [JMF's solution 86] (Eterna round: R96, puzzle: Exclusion NG 1)					65.7 nM	
UAUAUAUAGUAAGGAUAUGUAUUUAUGUUAUAAACAGAAGGUACUGACAUGAGGAUCACCCAUGUUUUAGUGUGGGCAUGUAGA [JMF's solution 16] (Eterna round: R96, puzzle: Exclusion NG 1)					76.3 nM	
UAUAUGUCAGGAUAUUAGUAGUAAAUGAAUAAAAUUAUUACUGAGAAGGGACAUGAGGAUCACCCAUGUGCCUU [Mat - Exclusion 4 - Eli Mod - D23] (Eterna round: R97, puzzle: Exclusion 4)				20.6 nM		16.6 nM
UAUCAACAUGAGGAUCACCCAUGUGAGGAUAUCAAAACCAGAGCGGAUCUCUGGCCCAUGAGAAGGUACAUGGU [ElNandoxlusion 6 - Jieux - Exclusion 1] (Eterna round: R97, puzzle: Exclusion 1)				111 nM		22.3 nM
UAUCAUCAUGUAGGAUAUGCGUGGCAAAGCUAUGCAGAAGGACAUGAGGAUCACCCAUGUUCUAGCGUCUGAGUACAGAUGCUA [Mat - Exclusion NG 1 - Mod of JL - D75] (Eterna round: R96, puzzle: Exclusion NG 1)				278 nM	66.4 nM	83.7 nM
UAUCGGCGGACCGAGGCUUUUUGCUCGUCUUAUGCUAUGACAUGAGGAUCACCCAUGUGGUGGUGGUCCGUUGUAGU [JL ViennaUCT Bitein mod 10] (puzzle: Sensor v3, turn-off variant 2)	64.5 nM	12.6 nM	48.1 nM			
UAUCUACAUGUAGGAUAUGCGUGGCGAAGCUAUGCAGAAGGACAUGAGGAUCACCCAUGUUUUAGCGUCUGCGUACAGAUGCGU [JL ENG1 1.48] (Eterna round: R96, puzzle: Exclusion NG 1)				149 nM	16.4 nM	23.2 nM
UAUGAUUUAGGAUAUUGUACUGCUGACAUGAGGAUCACCCAUGUAUGCUAACUCGGCCGUCGAGAAGGAGAUUAUG [BotMod 29 - Jieux - Exclusion 5] (Eterna round: R97, puzzle: Exclusion 5)				37.9 nM		39.4 nM
UAUGGUUAAGUCAGGAUAUACUAAUAGAAGUCUGUGUAGAAGGGACAUGAGGAUCACCCAUGUAUGGUAGUGUU [Ex4 #60] (Eterna round: R97, puzzle: Brourd's mod of Exclusion 4)				119 nM		122 nM
UAUGGUUAAGUCAGGAUAUGCUCAUAGAGGUCUAUGCAGAAGGGACAUGAGGAUCACCCAUGUAUGGUCGUGUU [Ex4 #64] (Eterna round: R97, puzzle: Brourd's mod of Exclusion 4)				84.6 nM		53.6 nM
UAUGUGUGAGGAUAUGGUAAAGAUAAGAUGAUGAAAGAACUCCAGAAGGCACAUGAGGAUCACCCAUGUAGAUA [Mat - Exclusion 4 - Mod of JL - D23] (puzzle: Exclusion 4)		20.4 nM				
UAUUAAACAAGCAGGUCCCACAUGAGGAUCACCCAUGUGCUCGUCUUAUAAGGUACUGUGAUGAAAGUUACGGUACC [Elimod 17 - Jieux - Sensor, turn-off variant 1] (Eterna round: R97, puzzle: Sensor, turn-off variant 1)				36.4 nM		46.2 nM
UAUUAACAAGCAAGAUCCCACAUGAGGAUCACCCAUGUGCUCGUCUUAUAAGGUACUGUGACGAAAGUCACGGUACC [Sensor 3, v1 - 80] (puzzle: Sensor v3, turn-off variant 1)	26.5 nM	580 nM	28 nM			
UAUUAACAAGCUAGGUCCCACAUGAGGAUCACCCAUGUGCUCGUCUUAUAAGGUACUGUGACGAAAGUCACGGUACC [Sensor 3, v1 - 79] (Eterna round: R96, puzzle: Sensor v3, turn-off variant 1)				30.2 nM	464 nM	38.4 nM
UAUUAACAAGCUAGGUCCCACAUGAGGAUCACCCAUGUGCUCGUCUUAUAAGGUACUGUGACGAAAGUCACGGUACC [Sensor 3, v1 - 79] (puzzle: Sensor v3, turn-off variant 1)	30 nM	909 nM	31.5 nM			
UAUUAACAAGUAAGAUCCCACAUGAGGAUCACCCAUGUUCGUCUUAUAGGUACUGUGACACAAAGUGUCACGGUACC [Mod of Eli's R95 Sensor 3, v1 - 87] (Eterna round: R97, puzzle: Sensor, turn-off variant 1)				36.9 nM		44.9 nM
